Measurements published in the Human Domainome abundance scans (Beltran et al. 2025).

B1: Far upstream element-binding protein 1, residues 184 to 257; numbered along this chain, Q96AE4 (parent)
chain: GNAVQEIMIPASKAGLVIGKGGETIKQLQERAGVKMVMIQDGPQNTGADKPLRITGDPYKVQQAKEMVLELIRD

Variants of: B1
Assay: abundance fitness (aPCA) (normalised: wild type 0, dead -1); higher = more abundant; growth selection in yeast, the domain comes from the species named
Conditions: Homo sapiens

Abundance fitness of substitutions, site by site:
I18: S -0.09; P -0.292; L 0.008; C -0.12; E -0.028; R -0.104; D -0.152; V -0.018; M -0.065; G -0.148; Q -0.058; Y -0.106; T 0.011; H -0.009; K -0.117; A 0.038
P10: Y -1.03; W -1.22
V17: G -0.599; S -0.505; K -0.679; R -0.687; I -0.06; M -0.08; A -0.427; H -0.589; Y -0.428; E -0.503; W -0.294; P -0.759; C -0.272; Q -0.703; N -0.594; D -0.479
A14: D -0.109; G -0.193; T 0.035; F -0.022; N -0.061; I 0.039; L 0.042; Y -0.039; R 0.001; M 0.033; V -0.017; E -0.014; K -0.065; Q 0.028; P -0.643; S -0.049; C 0.031; H 0.034
K13: Q -0.035; G -0.231; A -0.094; T -0.218; S -0.078; E -0.139; D -0.155; I -0.015; P -0.659; W -0.3; F -0.182; R -0.187; V -0.091; L -0.114; Y -0.091; C -0.008; H -0.032
G15: C 0.127; Y -0.035; N 0.011; Q -0.031; S -0.04; M 0.042; V -0.026; P -0.128; W -0.005; I -0.028; A -0.126; T -0.093; L -0.026; R -0.041; E 0.04; D -0.031
S12: V -0.059; Y -0.13; D 0.004; M -0.071; H -0.018; N 0; Q -0.077; E -0.016; F -0.207; K 0.011; I -0.032; A 0.012; L -0.112; T 0.001; C -0.133; W -0.123; G 0.002; R -0.025; P -0.008
A11: K -0.011; I -0.096; M -0.094; D -0.014; L -0.092; C -0.034; F -0.13; Y -0.089; N 0.021; V -0.071; Q -0.078; T -0.08; R -0.1; H -0.133; G -0.098; E -0.098; W -0.17
L16: S -0.122; H -0.15; R -0.087; K -0.008; Y -0.045; D -0.053; G -0.191; C -0.147; N -0.103; W -0.068; M -0.018; P -0.581; Q -0.093; A -0.028; F 0.003; I -0.048; E -0.06; T -0.058
K20: F -0.07; G -0.105; A 0.02; I -0.129; N -0.016; D 0.049; E -0.01; M -0.112; H -0.045; C -0.14
G19: F -0.519; R -0.438; S -0.366; V -0.763; Y -0.685; C -0.473; I -0.931; E -0.297; T -0.371; H -0.376; L -0.598; A -0.339; P -0.629; N -0.278; M -0.551; D -0.204; Q -0.363; K -0.445
